# Measured values taken from IntAct's records for PubMed 24413433.
# B1: Telomere repeats-binding bouquet formation protein 1 (Mus musculus), Q8C0V1-1 (parent)
# chain: MESEKPKKTQEMKTDLKLLLECLKYHMGNPLSQKEVLITIHSVCKQNSDAGIYFREIGGLMFIINLAKSSEQSLVKEAALYTLGSIAEENVYCQQSLCTSELFQDLTGLLTNDDSNTNLKRMSVYVLLVLVSNNRNGQTLVREVGCIEVLSQMFRTVLSNYELNLSDNSVFQSYLLWSSVCSTLCVCVNNPQNDENQMLCCSLFPCVNEWLMNCMRPEVIRPICSFIGLTLANNTHAQNCFVSSGGLDVLCQVLVQLESDSHNTLSSAKLAVIVTKTMDACITDNSAAFTVVLSKYHIVSTLLALLLHESLDSREKFSIILAIGHCTEDCEKNQYELLKNNGLPLMIQALTEFKNEDLSKAATYVLHNCKKITGKLSLSLGQNSFGENEIELKDISEKETLREHWKAAKEILCRIKQFEKGGKEEKQQNRSGHYKDNTPSMKVNIQTNLKRLCADSTGGTRAEDKDINQSRELRSYKPSEIMSKACANENQLTTRKKNTNPVHPFCKEKGQSKIVHETTPSCAQNLDKEKTFDQKDSVSQSSDQVLKHLPHTVKNRKQVPETDPFTLCLDIIDREVGIQATDSCSRMLKYTCSGCIVARKLLNSRNFSKFLHSCAYQCVHHKVIMEAEDKYKNELRKTFICAKKILLTPCRRRQLCKESTASEELKIVHQKPDSKKLPGLEAQALNTSIPEAMERRSPVPGQSGLHKKRRIRKDFTKEEVNYLFHGVKTMGNHWNSILWSFPFQKGRRAVDLAHKYHRLIKGPSCAAL
# partner: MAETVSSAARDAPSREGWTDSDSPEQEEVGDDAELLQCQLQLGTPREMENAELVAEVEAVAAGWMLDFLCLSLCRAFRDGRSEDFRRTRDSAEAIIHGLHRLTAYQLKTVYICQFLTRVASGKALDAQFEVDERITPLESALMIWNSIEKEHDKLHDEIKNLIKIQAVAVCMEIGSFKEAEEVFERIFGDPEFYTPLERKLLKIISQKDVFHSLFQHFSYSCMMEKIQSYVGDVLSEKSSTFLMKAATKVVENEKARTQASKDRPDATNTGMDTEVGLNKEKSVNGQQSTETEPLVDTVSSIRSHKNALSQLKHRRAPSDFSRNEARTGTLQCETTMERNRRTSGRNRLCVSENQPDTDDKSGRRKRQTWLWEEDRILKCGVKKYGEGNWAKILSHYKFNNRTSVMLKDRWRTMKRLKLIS
# Variants of: B1
# Conditions: with terf1_mouse Terf1, P70371
row,effect of a mutation on the interaction,Variant
1,disrupting interaction strength,T648D
